Among the data in patent CN101448941A are 激动活性 (UT-7/TPO细胞增殖试验), relative to 7-10G4344uhm (of the original level) and 结合活性 relative to the original 7-10G4344uhm (of the original level) values, retold here.

For assay [1], the target named is 人血小板生成素受体 (人c-Mpl) (human) (UniProt P40238). The experiment in a line: cell-based or functional assay.
The target is the same in assay [2]. The experiment in a line: flow cytometry on FM3A-hMpl cells. (In general: In flow cytometry, cells or beads pass a laser one at a time.)

B1: 7-10G4344uhm轻链突变抗体 7-10VL_Y94F (antibody, part only; not given: heavy chain, not shown: a dimerising Fc or GST)
light: AIQLTQSPSSLSASVGDRVTITCRASQGISSALAWYQQKPGKAPKLLIYDASSLESGVPSRFSGSGSGTDFTLTISSLQPEDFATYYCQQFNSFPLTFGGGTKVEIK
In turn, B1 showed a 激动活性 (UT-7/TPO细胞增殖试验), relative to 7-10G4344uhm (of the original level) in assay [1] of 0.1. For the same molecule, the 结合活性 relative to the original 7-10G4344uhm (of the original level) in assay [2] turned out to be 0.1.
